Measured values: patent US8951758B2, “GH61 glycoside hydrolase protein variants and cofactors that enhance GH61 activity” (Codexis, Inc., priority 2011, dated 2015)

B1: EG1b: Wild-type EG1b endoglucanase (SEQ ID NO:110) (protein, listed as Myceliophthora thermophila)
chain: MGQKTLQGLVAAAALAASVANAQQPGTFTPEVHPTLPTWKCTTSGGCVQQDTSVVLDWNYRWFHTEDGSKSCITSSGVDRTLCPDEATCAKNCFVEGVNYTSSGVETSGSSLTLRQFFKGSDGAINSVSPRVYLLGGDGNYVVLKLLGQELSFDVDVSSLPCGENAALYLSEMDATGGRNEYNTGGAEYGSGYCDAQCPVQNWNNGTLNTGRVGSCCNEMDILEANSKAEAFTPHPCIGNSCDKSGCGFNAYARGYHNYWAPGGTLDTSRPFTMITRFVTDDGTTSGKLARIERVYVQDGKKVPSAAPGGDVITADGCTSAQPYGGLSGMGDALGRGMVLALSIWNDASGYMNWLDAGSNGPCSDTEGNPSNILANHPDAHVVLSNIRWGDIGSTVDTGDGDNNGGGPNPSSTTTATATTTSSGPAEPTQTHYGQCGGKGWTGPTRCETPYTCKYQNDWYSQCL
B2: beta-xylosidase: wild-type M. thermophila beta-xylosidase (SEQ ID NO:164) (protein, listed as Myceliophthora thermophila)
chain: MFFASLLLGLLAGVSASPGHGRNSTFYNPIFPGFYPDPSCIYVPERDHTFFCASSSFNAFPGIPIHASKDLQNWKLIGHVLNRKEQLPRLAETNRSTSGIWAPTLRFHDDTFWLVTTLVDDDRPQEDASRWDNIIFKAKNPYDPRSWSKAVHFNFTGYDTEPFWDEDGKVYITGAHAWHVGPYIQQAEVDLDTGAVGEWRIIWNGTGGMAPEGPHIYRKDGWYYLLAAEGGTGIDHMVTMARSRKISSPYESNPNNPVLTNANTTSYFQTVGHSDLFHDRHGNWWAVALSTRSGPEYLHYPMGRETVMTAVSWPKDEWPTFTPISGKMSGWPMPPSQKDIRGVGPYVNSPDPEHLTFPRSAPLPAHLTYWRYPNPSSYTPSPPGHPNTLRLTPSRLNLTALNGNYAGADQTFVSRRQQHTLFTYSVTLDYAPRTAGEEAGVTAFLTQNHHLDLGVVLLPRGSATAPSLPGLSSSTTTTSSSSSRPDEEEEREAGEEEEEGGQDLMIPHVRFRGESYVPVPAPVVYPIPRAWRGGKLVLEIRACNSTHFSFRVGPDGRRSERTVVMEASNEAVSWGFTGTLLGIYATSNGGNGTTPAYFSDWRYTPLEQFRD
B3: GH61p: M. thermophila GH61p (SEQ ID NO:70; alternative SEQ ID NO:73) (protein, listed as Myceliophthora thermophila)
chain: MKLTSSLAVLAAAGAQAHYTFPRAGTGGSLSGEWEVVRMTENHYSHGPVTDVTSPEMTCYQSGVQGAPQTVQVKAGSQFTFSVDPSIGHPGPLQFYMAKVPSGQTAATFDGTGAVWFKIYQDGPNGLGTDSITWPSAGKTEVSVTIPSCIEDGEYLLRVEHTPLPTAPAAQNRARSSPSPAAYKATDPGILFQLYWPIPTEYINPGPAPVSC
B4: CBH2b: wild-type M. thermophila CBH2b (SEQ ID NO:137) (protein, listed as Myceliophthora thermophila)
chain: MAKKLFITAALAAAVLAAPVIEERQNCGAVWTQCGGNGWQGPTCCASGSTCVAQNEWYSQCLPNSQVTSSTTPSSTSTSQRSTSTSSSTTRSGSSSSSSTTPPPVSSPVTSIPGGATSTASYSGNPFSGVRLFANDYYRSEVHNLAIPSMTGTLAAKASAVAEVPSFQWLDRNVTIDTLMVQTLSQVRALNKAGANPPYAAQLVVYDLPDRDCAAAASNGEFSIANGGAANYRSYIDAIRKHIIEYSDIRIILVIEPDSMANMVTNMNVAKCSNAASTYHELTVYALKQLNLPNVAMYLDAGHAGWLGWPANIQPAAELFAGIYNDAGKPAAVRGLATNVANYNAWSIASAPSYTSPNPNYDEKHYIEAFSPLLNSAGFPARFIVDTGRNGKQPTGQQQWGDWCNVKGTGFGVRPTANTGHELVDAFVWVKPGGESDGTSDTSAARYDYHCGLSDALQPAPEAGQWFQAYFEQLLTNANPPF
B5: GH61n: M. thermophila GH61n (SEQ ID NO:62; alternative SEQ ID NO:64) (protein, listed as Myceliophthora thermophila)
chain: MTKNAQSKQGVENPTSGDIRCYTSQTAANVVTVPAGSTIHYISTQQINHPGPTQYYLAKVPPGSSAKTFDGSGAVWFKISTTMPTVDSNKQMFWPGQNTYETSNTTIPANTPDGEYLLRVKQIALHMASQPNKVQFYLACTQIKITGGRNGTPSPLVALPGAYKSTDPGILVDIYSMKPESYQPPGPPVWRG
B6: CBH1a: wild-type M. thermophila CBH1a (SEQ ID NO:128) (protein, listed as Myceliophthora thermophila)
chain: MYAKFATLAALVAGAAAQNACTLTAENHPSLTYSKCTSGGSCTSVQGSITIDANWRWTHRTDSATNCYEGNKWDTSWCSDGPSCASKCCIDGADYSSTYGITTSGNSLNLKFVTKGQYSTNIGSRTYLMESDTKYQMFQLLGNEFTFDVDVSNLGCGLNGALYFVSMDADGGMSKYSGNKAGAKYGTGYCDSQCPRDLKFINGEANVENWQSSTNDANAGTGKYGSCCSEMDVWEANNMAAAFTPHPCTVIGQSRCEGDSCGGTYSTDRYAGICDPDGCDFNSYRQGNKTFYGKGMTVDTTKKITVVTQFLKNSAGELSEIKRFYVQNGKVIPNSESTIPGVEGNSITQDWCDRQKAAFGDVTDFQDKGGMVQMGKALAGPMVLVMSIWDDHAVNMLWLDSTWPIDGAGKPGAERGACPTTSGVPAEVEAEAPNSNVIFSNIRFGPIGSTVSGLPDGGSGNPNPPVSSSTPVPSSSTTSSGSSGPTGGTGVAKHYEQCGGIGFTGPTQCESPYTCTKLNDWYSQCL
B7: Xyl3: wild-type M. thermophila xylanase (SEQ ID NO:149) (protein, listed as Myceliophthora thermophila)
chain: MHSKAFLAALLAPAVSGQLNDLAVRAGLKYFGTALSESVINSDTRYAAILSDKSMFGQLVPENGMKWDATEPSRGQFNYASGDITANTAKKNGQGMRCHTMVWYSQLPSWVSSGSWTRDSLTSVIETHMNNVMGHYKGQCYAWDVINEAINDDGNSWRDNVFLRTFGTDYFALSFNLAKKADPDTKLYYNDYNLEYNQAKTDRAVELVKMVQAAGAPIDGVGFQGHLIVGSTPTRSQLATALQRFTALGLEVAYTELDIRHSSLPASSSALATQGNDFANVVGSCLDTAGCVGVTVWGFTDAHSWIPNTFPGQGDALIYDSNYNKKPAWTSISSVLAAKATGAPPASSSTTLVTITTPPPASTTASSSSSATPTSVPTQTRWGQCGGIGWTGPTQCESPWTCQKLNDWYWQCL
B8: GH61f: M. thermophila GH61f (SEQ ID NO:29) (protein, listed as Myceliophthora thermophila)
chain: MKSFTLTTLAALAGNAAAHATFQALWVDGVDYGAQCARLPASNSPVTDVTSNAIRCNANPSPARGKCPVKAGSTVTVEMHQQPGDRSCSSEAIGGAHYGPVMVYMSKVSDAASADGSSGWFKVFEDGWAKNPSGGSGDDDYWGTKDLNSCCGKMNVKIPADLPSGDYLLRAEALALHTAGSAGGAQFYMTCYQLTVTGSGSASPPTVSFPGAYKATDPGILVNIHAPLSGYTVPGPAVYSGGSTKKAGSACTGCESTCAVGSGPTATVSQSPGSTATSAPGGGGGCTVQKYQQCGGQGYTGCTNCASGSTCSAVSPPYYSQCV
B9: FAE: wild-type M. thermophila ferulic acid esterase (SEQ ID NO:170) (protein, listed as Myceliophthora thermophila)
chain: MISVPALALALLAAVQVVESASAGCGKAPPSSGTKSMTVNGKQRQYILQLPNNYDANKAHRVVIGYHWRDGSMNDVANGGFYDLRSRAGDSTIFVAPNGLNAGWANVGGEDITFTDQIVDMLKNDLCVDETQFFATGWSYGGAMSHSVACSRPDVFKAVAVIAGAQLSGCAGGTTPVAYLGIHGAADNVLPIDLGRQLRDKWLQTNGCNYQGAQDPAPGQQAHIKTTYSCSRAPVTWIGHGGGHVPDPTGNNGVKFAPQETWDFFDAAVGAAGAQSPMT
B10: AXE3: wild-type M. thermophila acetylxylan esterase (SEQ ID NO:167) (protein, listed as Myceliophthora thermophila)
chain: MKLLGKLSAALALAGSRLAAAHPVFDELMRPTAPLVRPRAALQQVTNFGSNPSNTKMFIYVPDKLAPNPPIIVAIHYCTGTAQAYYSGSPYARLADQKGFIVIYPESPYSGTCWDVSSRAALTHNGGGDSNSIANMVTYTLEKYNGDASKVFVTGSSSGAMMTNVMAAAYPELFAAGIAYSGVPAGCFYSQSGGTNAWNSSCANGQINSTPQVWAKMVFDMYPEYDGPRPKMQIYHGSADGTLRPSNYNETIKQWCGVFGFDYTRPDTTQANSPQAGYTTYTWGEQQLVGIYAQGVGHTVPIRGSDDMAFFGL

test system: pretreated corn stover (PCS); assay: Supplementation of CF-416 whole cellulase broth with single purified enzymes, saccharification of pretreated corn stover; format: biochemical; settings: 0.4% single enzyme added to 0.5% CF-416 whole cellulase broth base
Description: (§1) In this Example, M. thermophila-produced and purified GH61a, GH61p, GH61f, GH61n, CBH1a, CBH2b, AXE3, FAE, and Xyl3, were used to supplement the activity present in culture broths (i.e., “whole broth cellulase base”) of the M. thermophila strain CF-416 prepared using standard methods known in the art. The broth cellulase base was fixed to 0.5% protein and the single purified enzyme was added at 0.4% (wt added protein/wt glucan) to the saccharification reactions. The whole cellulase broth base and individual enzymes were characterized by standard BCA assays for total protein quantification.
(§2) The saccharification reactions were carried out at 74 g/L glucan load of pretreated wheat straw (PWS) or pretreated corn stover (PCS) at pH 5.0, 55° C. at 950 rpm in the presence of 50 μM copper in high throughput (HTP) 96 deep well plates. Glucose analysis was carried out by the glucose oxidase assay as described above. In each case, the fold improvement was calculated using the formula Fold Improvement=[Total Glucose Production with addition of 0.4% single enzyme to the whole cellulase broth base]/[glucose production from the 0.5% whole cellulase broth base]. In this Table, the fold improvements were ranked from 0 to 3; fold improvements less than 1.2× are indicated by “0,” fold improvements of >1.2 to <1.5 are indicated by “1,” fold improvements of ≧1.5× to <1.7× improvements are indicated by “2,” and fold improvements ≧1.7 are indicated by “3.”

improvement over whole cellulase broth on PCS, in words	Molecule
did not show any improvement	B1
did not show any improvement	B2
greatest benefit	B3

same assay, conditions: 0.4% single enzyme added to 0.5% CF-416 whole cellulase broth base; 74 g/L glucan, pH 5.0, 55° C., 50 μM copper

Fold Improvement Over Whole Cellulase Broth Tested on PCS	Molecule
1 (fold improvements of >1.2 to <1.5)	B4
1 (fold improvements of >1.2 to <1.5)	B5
1 (fold improvements of >1.2 to <1.5)	B6
0 (fold improvements less than 1.2×)	B7
1 (fold improvements of >1.2 to <1.5)	B8
1 (fold improvements of >1.2 to <1.5)	B9
0 (fold improvements less than 1.2×)	B10
3 (fold improvements ≧1.7)	B3

test system: pretreated wheat straw (PWS); assay: Supplementation of CF-416 whole cellulase broth with single purified enzymes, saccharification of pretreated wheat straw; format: biochemical; settings: 0.4% single enzyme added to 0.5% CF-416 whole cellulase broth base
Description: as §1, §2

improvement over whole cellulase broth on PWS, in words	Molecule
did not show any improvement	B1
did not show any improvement	B2

same assay, conditions: 0.4% single enzyme added to 0.5% CF-416 whole cellulase broth base; 74 g/L glucan, pH 5.0, 55° C., 50 μM copper

Fold Improvement Over Whole Cellulase Broth Tested on PWS	Molecule
1 (fold improvements of >1.2 to <1.5)	B4
1 (fold improvements of >1.2 to <1.5)	B5
3 (fold improvements ≧1.7)	B6
1 (fold improvements of >1.2 to <1.5)	B7
1 (fold improvements of >1.2 to <1.5)	B8
1 (fold improvements of >1.2 to <1.5)	B9
1 (fold improvements of >1.2 to <1.5)	B10
2 (fold improvements of ≧1.5× to <1.7×)	B3
